Data as given in patent US20170174769A1 (Regeneron, published 2017).

T1: full-length human KLB on HEK293/hKLB/SRE-luc cells (human, UniProt Q86Z14 1-1044)
T1 construct: amino acids 1-1044 of NP_783864.1
T1 sequence: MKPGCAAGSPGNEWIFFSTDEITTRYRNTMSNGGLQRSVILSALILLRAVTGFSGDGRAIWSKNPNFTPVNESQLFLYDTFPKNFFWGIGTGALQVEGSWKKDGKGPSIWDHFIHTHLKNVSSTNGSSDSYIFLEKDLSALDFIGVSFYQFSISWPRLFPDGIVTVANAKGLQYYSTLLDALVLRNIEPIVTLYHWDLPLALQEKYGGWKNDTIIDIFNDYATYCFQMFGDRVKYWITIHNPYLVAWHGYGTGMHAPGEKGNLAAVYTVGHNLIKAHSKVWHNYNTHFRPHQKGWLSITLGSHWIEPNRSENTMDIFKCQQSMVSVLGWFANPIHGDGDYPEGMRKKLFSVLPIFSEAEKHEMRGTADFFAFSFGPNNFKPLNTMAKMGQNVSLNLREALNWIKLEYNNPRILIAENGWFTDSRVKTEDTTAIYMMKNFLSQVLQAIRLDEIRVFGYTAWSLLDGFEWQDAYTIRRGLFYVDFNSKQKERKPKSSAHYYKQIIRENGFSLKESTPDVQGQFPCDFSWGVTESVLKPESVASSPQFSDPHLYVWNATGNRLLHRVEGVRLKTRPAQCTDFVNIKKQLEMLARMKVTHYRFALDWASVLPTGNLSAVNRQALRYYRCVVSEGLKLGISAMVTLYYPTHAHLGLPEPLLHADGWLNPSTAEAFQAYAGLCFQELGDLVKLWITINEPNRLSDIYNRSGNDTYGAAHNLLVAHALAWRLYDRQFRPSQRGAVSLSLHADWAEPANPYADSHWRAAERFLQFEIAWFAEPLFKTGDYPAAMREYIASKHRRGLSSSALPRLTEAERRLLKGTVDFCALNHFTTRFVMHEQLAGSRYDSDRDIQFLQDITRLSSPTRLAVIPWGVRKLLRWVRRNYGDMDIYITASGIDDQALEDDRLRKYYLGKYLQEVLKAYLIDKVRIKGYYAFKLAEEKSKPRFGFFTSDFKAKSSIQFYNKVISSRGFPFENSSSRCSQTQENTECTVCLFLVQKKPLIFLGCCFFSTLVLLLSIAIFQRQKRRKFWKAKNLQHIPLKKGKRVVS


Tests used:
[1] = molecular target: T2, human KLB and human FGFR1c co-expressed on HEK293/hKLB/hFGFR1c/SRE-luc cells (human, UniProt Q86Z14 1-1044; P11362 22-822); assay: cell-based or functional assay
[2] = molecular target: T2, human KLB and human FGFR1c co-expressed …; assay: cell-based or functional assay; remark: listed apart in the source
[3] = molecular target: T1, full-length human KLB on …; assay: FACS on stable HEK293 cells
Summary of the method: (§1)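 HEK293 cells stably expressing full-length human FGFR1c with an SRE-luciferase reporter, alongside parental, hKLB and hKLB/hFGFR1c lines, stained with anti-KLB/FGFR1c antibodies in PBS with 1% FBS and analyzed by flow cytometry. Geometric mean fluorescence of viable cells was normalized to unstained cells to give binding ratios.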

[4] = molecular target: T3, full-length human FGFR1c on HEK293/hFGFR1c/SRE-luc cells (human, UniProt P11362 22-822); assay: FACS on stable HEK293 cells
T3 construct: amino acids 1-733 of NP_075593
T3 sequence (P11362 other isoform, or with tags, fused parts or gaps limits assumed): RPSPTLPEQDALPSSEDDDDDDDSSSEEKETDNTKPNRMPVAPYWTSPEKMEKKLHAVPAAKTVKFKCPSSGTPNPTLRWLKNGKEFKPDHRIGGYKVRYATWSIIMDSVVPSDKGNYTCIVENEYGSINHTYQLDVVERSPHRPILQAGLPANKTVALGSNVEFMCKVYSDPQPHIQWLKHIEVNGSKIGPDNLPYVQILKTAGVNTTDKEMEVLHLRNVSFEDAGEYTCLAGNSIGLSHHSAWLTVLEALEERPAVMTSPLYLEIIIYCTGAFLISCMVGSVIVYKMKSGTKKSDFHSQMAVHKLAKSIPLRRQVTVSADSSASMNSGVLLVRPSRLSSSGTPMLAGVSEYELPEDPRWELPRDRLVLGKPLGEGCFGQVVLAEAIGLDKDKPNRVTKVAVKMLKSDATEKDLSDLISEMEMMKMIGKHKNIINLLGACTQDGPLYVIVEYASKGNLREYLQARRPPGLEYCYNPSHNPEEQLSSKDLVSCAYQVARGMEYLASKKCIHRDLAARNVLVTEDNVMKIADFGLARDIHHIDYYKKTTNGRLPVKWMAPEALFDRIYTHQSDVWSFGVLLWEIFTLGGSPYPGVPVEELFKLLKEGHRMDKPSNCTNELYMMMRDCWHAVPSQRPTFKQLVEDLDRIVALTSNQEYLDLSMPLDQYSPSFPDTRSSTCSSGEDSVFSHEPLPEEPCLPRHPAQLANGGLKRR
Summary of the method: as §1

Binder | IC50, inhibition of 1 nM hFGF21 [1] | Maximum Inhibition (%) of 1 nM hFGF21 [1] | EC50, SRE-luc activation without ligand [2] | Maximum Activation (%) without ligand [2] | binding ratio to unstained cells [3] | binding ratio to unstained cells [4]
H4H8878P (antibody, V domains shown, human IgG4 Fc (H4H prefix)) VH: QVQLVESGGGVVQPGRSLRLSCAASGFTLNTYGMHWIRQTPGKGLEWVSLISYDETKEYYVDSVKGRFTISRDNSKNTLYLQMNSVRVEDTAVYYCAKPLTGSTDYYYGLDVWGQGTTVTVSS VL: DIQMTQSPSYVSASVGDRVIITCRASQDISSWLAWYQQKPGKAPKLLIYVTSSLESGVPSRFSGSGSGTDFTLTISGLQPEDFATYYCQQVKSFPPTFGPGTKVDIK | 230 pM | 38% | 410 pM | 1% | 11 fold | 2 fold
H1H8900P (antibody, V domains shown, H1H Fc prefix (human Fc)) VH: QVQLVESGGGVVQPGRSLRLSCVASGFTFSSYGMHWVRQAPGKGLEWVAVISFDGSNKYYADSVKGRFTISRDNSKNTLYLQMNSLRPADTAVYYCAKDRSNYYYFGMDVWGQGTTVTVSS VL: DIVMTQTPLSLPVTPGEPASISCRSSQSLLDSDDGNTYLDWYLQKPGQSPQLLIYTLSYRASGVPDRFSGSGSGTDFTLKISRVEAEDVGVYYCMQRIEFPLTFGGGTKVEIK | 4500 pM | 41% | 17000 pM | 2% | 1 fold | 5 fold
H4H8856P (antibody, V domains shown, human IgG4 Fc (H4H prefix)) VH: QVQLQESGPGLVKPSETLSLTCTVSGGSISSYYWSWIRQPPGKGLEWIAYIYYSGITKYNPSLKSRVTISADTSKNQFSLKLSSVTAADTAVYYCARHGIFGVMEYFQRWGQGTLVTVSS VL: DIQMTQSPSSLSASIGDRVTITCQASQDISNFLNWYQQKPGKAPTLLIYDVSNMETGVPSRFSGSGYGTDFTLTISSLKPEDIATYYCQQYDNIPLTFGGGTKVEIK | 650 pM | 91% | 300 pM | 6% | 5 fold | 1 fold
H4H8871P (antibody, V domains shown, human IgG4 Fc (H4H prefix)) VH: QVQLQESGPGLVKPSETLSLTCTVSGASISSYYWSWIRQPPGKGLEWIGYIYSSGIIKYNPSLKSRVTISADTSKNQFSLKLSSVTAADTAVYYCARHGIFGVMEYFQRWGQGTLVTVSS VL: DIQMTQSPSSLSASIGDRVTITCQASQDIGNFLNWYHQKPGKAPTLLIYDASNMETGVPSRFRGSGSGTYFTFIISSLQPEDVATYYCQQYDNLPLTFGGGTKVEIK | 380 pM | 92% | 180 pM | 5% | 7 fold | 1 fold
H4H8880P (antibody, V domains shown, human IgG4 Fc (H4H prefix)) VH: EVQLVESGGGVVQPGGSLRLSCAASGFTFSLYAMSWVRQAPGKGLEWVSAISGSAHGAYYADSVKGRFTISRDNSKNSLYLQMNSLRAEDTAIYYCAKDLVIAVAGTFDYWGQGTLVTVSS VL: DIQMTQSPSSLSASVGDRVTITCRASQIISTYLNWYQQKPGKAPKILIYTASSLKSGVPSRFSGSGSGTDFTLTISSLQPEDFATYYCQQTYSSPRFTFGPGTKVDIK | 150 pM | 39% | 54 pM | 1% | 14 fold | 2 fold
H2aM8098N (antibody, V domains shown, mouse IgG2 Fc (H2aM prefix)) VH: QLQLQESGPGLVKPSETLSLTCTVSGGSISSSNYYWDWIRQTPEKGLEWIGSIHYSGTSYYNPSLKSRVTISVDTSKNQFSLKLRSVTAADAAVYYCARQTSVYWYFDIWGHGTLVTVST VL: EIVLTQSPGTLSLSPGEGATLSCRASQSVRNNYLAWYQQKPGQAPRLLIYGASSRAIGIPDRFSGSGSGTDFTLTISRLEPKDFVVYYCQQYGGSLFTFGPGTKVDIK | 15000 pM | 62% | 23000 pM | 1% | 11 fold | 1 fold
H1H8897P (antibody, V domains shown, H1H Fc prefix (human Fc)) VH: QVQLVESGGGLVKPGGSLRLSCAAAGFTFSDYYMSWIRQAPGQGLEWVSYISPSGSTTYYADSVQGRFTISRDNAKSSLYLQMNSLRAEDTAVYYCARTGIQLWSVYFDYWGQGTLVTVSS VL: not shown | 970 pM | 101% | 19000 pM | 1% | 1 fold | 1 fold
H1H8898P (antibody, V domains shown, H1H Fc prefix (human Fc)) VH: QVQLVESGGGLVKPGGSLRLSCAASGFIFSDYYMSWIRQAPGKGLDWISYISPSGSTIYYADSVKGRFTISRDNAKNSLYLQMNSLRADDTAVYYCARTGIQLWSVYFDYWGQGTLVTVSS VL: EIVMTQSPATLSVSPGERATLSCRASQSVGSNLAWYQQKPGQAPRLLIYGASTRANGIPARFSGSGSGTEFTLTISGLQSEDFAVYYCQQYNNWPTFGQGTKLEIK | 2000 pM | 97% | 8900 pM | 3% | 1 fold | 1 fold
H4H8881P (antibody, V domains shown, human IgG4 Fc (H4H prefix)) VH: QVQLVQSGAEVKKPGASVKVSCKASGYTFTSYVIHWVRQAPGQRLEWMGWSNAANGDTKYSQEFQDRVTFTRDTSASTAYMELSSLRSEDMAVYYCARWNWNYGAFDIWGQGTMVTVSS VL: DIQMTQSPSSLSASVGDRVTITCQASQDINNYLHWYQQKSGKAPNLLIYDASILETGVPSRFSGSGSGTDFTFTISSLQPEDIATYYCQQYDNLPYTFGQGTKLEIK | 67 pM | 77% | 72 pM | 7% | 15 fold | 2 fold
